Numbering of substitutions follows the chain as printed. Where two headings read alike, the source gives them in different places. Blank lines part the entries; values can stand above or below the binder they belong to.
Experiments:
human FcγRI, His6-tagged = biological target: T1, human FcγRI, His6-tagged (human, UniProt P12314 16-288); assay: SPR, 1:1 kinetic
T1 construct: also called FcG RI
Protocol: (§1) Interaction affinities for IgGs were determined by surface plasmon resonance using a BIACORE® T200 instrument. For most analyses, His6-tagged FcγRI, FcγRIIa (167R and 167H variants), FcγRIIb, FcγRIIIa (176F and 176 V variants), and FcγRIIIb receptors (all Sino Biological) were captured on a CM5 sensor chip coated with an anti-HIS antibody by standard amine coupling. Receptor-specific formats of analyses were then applied, as below.
Regeneration with 2× injections glycine pH 1.5 and analysis using 1:1 fit.

[1] = biological target: T2, human FcγRIIa 167H variant, His6-tagged (human, UniProt P12318 34-218); assay: SPR, steady state
T2 construct: also called FcG RIIa (167H)
T2 sequence (looked up): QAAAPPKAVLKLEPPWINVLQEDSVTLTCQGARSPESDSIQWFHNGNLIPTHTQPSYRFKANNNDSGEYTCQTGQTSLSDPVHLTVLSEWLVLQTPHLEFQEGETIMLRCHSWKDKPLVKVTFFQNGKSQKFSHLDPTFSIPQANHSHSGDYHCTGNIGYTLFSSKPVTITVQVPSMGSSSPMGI
Protocol: as §1

[2] = biological target: T3, human FcγRIIb, His6-tagged (human, UniProt P31994 43-217); assay: SPR, steady state
T3 construct: also called FcG RIIb
T3 sequence (looked up): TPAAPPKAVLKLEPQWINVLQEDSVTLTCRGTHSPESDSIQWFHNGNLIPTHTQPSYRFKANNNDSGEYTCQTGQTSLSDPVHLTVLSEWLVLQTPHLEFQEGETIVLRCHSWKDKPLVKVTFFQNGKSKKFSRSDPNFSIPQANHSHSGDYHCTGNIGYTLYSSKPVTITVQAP
Protocol: as §1

[3] = biological target: T4, human FcγRIIIa 176F variant, His6-tagged (human, UniProt P08637 17-208); assay: SPR, steady state
T4 construct: also called FcG RIIIa (176F)
T4 sequence (P08637 17-208 limits assumed, change not shown): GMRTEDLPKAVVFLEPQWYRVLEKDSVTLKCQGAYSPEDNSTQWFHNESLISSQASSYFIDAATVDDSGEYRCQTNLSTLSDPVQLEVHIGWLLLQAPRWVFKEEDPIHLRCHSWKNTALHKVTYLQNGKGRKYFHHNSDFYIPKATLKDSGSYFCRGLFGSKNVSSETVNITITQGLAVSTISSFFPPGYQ
Protocol: as §1

[4] = biological target: T5, human FcγRIIIa 176V variant, His6-tagged (human, UniProt P08637 17-208); assay: SPR, steady state
T5 construct: also called FcG RIIIa (176V)
T5 sequence (P08637 other isoform, or with tags, fused parts or gaps mutant limits assumed): as the sequence (P08637 17-208 limits assumed, change not shown) above, with F160V counted along it
Protocol: as §1

[5] = biological target: T6, human FcγRIIIb, His6-tagged (human, UniProt O75015 17-200); assay: SPR, steady state
T6 construct: also called FcG RIIIb
T6 sequence (O75015 17-200 limits assumed): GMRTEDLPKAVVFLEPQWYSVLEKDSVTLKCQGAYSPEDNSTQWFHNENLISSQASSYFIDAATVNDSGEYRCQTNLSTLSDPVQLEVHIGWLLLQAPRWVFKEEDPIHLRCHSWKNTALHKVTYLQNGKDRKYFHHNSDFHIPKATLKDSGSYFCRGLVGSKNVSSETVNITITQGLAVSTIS
Protocol: as §1

[6] = biological target: T7, human FcγRIIa 167R variant, His6-tagged (human, UniProt P12318 34-218); assay: SPR, steady state
T7 construct: also called FcG RIIa (167R)
T7 sequence (looked up): T2 sequence (looked up) with H134R
Protocol: as §1

human FcRn = biological target: T8, human FcRn (human, UniProt P55899 24-297, limits assumed); assay: SPR, steady state, pH 6
T8 construct: also called hFcRn
T8 sequence (P55899 24-297 limits assumed, form in doubt): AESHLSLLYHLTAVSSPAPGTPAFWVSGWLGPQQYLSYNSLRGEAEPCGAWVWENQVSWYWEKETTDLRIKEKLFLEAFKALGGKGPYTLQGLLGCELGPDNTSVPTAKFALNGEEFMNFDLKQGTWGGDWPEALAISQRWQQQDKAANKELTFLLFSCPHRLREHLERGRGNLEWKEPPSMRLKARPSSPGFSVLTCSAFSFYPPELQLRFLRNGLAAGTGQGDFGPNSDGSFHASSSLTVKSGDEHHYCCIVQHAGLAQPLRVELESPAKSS
Protocol: The interactions between monomeric IgG and FcRn are relatively low affinity and pH-sensitive interactions, so ‘steady state’ affinity analyses were performed under the following conditions: A CM5 chip was directly coupled with hFcRn in sodium acetate pH 5.5 using standard amine chemistry. Running buffer was PBS 0.05% P20+150 mM NaCl (pH 6.0 or pH 7.4), flow rate 30 μl/min, 5 point three-fold dilutions of purified antibodies from 3000 nM to 37.0 nM applied with an association time of 18s, dissociation time 100 s.

[7] = biological target: T9, cynomolgus monkey C-KIT-Fc protein (cynomolgus monkey); assay: direct ELISA, IgG at 1 µg/ml
T9 construct: also called cyno C-KIT-Fc; cyno C-KIT

[8] = biological target: T9, cynomolgus monkey C-KIT-Fc protein; assay: HTRF competition vs terbium-labelled h37M IgG1
[9] = biological target: T9, cynomolgus monkey C-KIT-Fc protein; assay: HTRF competition vs terbium-labelled h37M IgG1; remark: listed apart in the source
[10] = biological target: cynomolgus C-KIT on stably transfected CHO-K1 cells (cynomolgus monkey); assay: cell-based or functional assay

T1 sequence (P12314 16-288 limits assumed): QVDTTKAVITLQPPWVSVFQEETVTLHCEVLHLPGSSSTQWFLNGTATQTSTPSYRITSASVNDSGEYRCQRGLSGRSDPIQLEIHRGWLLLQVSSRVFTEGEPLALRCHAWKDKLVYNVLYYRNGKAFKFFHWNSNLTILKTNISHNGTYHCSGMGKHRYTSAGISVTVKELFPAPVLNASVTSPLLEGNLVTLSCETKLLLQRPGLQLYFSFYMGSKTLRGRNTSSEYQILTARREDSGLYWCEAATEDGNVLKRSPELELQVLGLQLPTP

B2: MH1 IgG1-3M (antibody, V domains shown)
VH: QVQLVQSGAEVKKPGASVKVSCKASGYTFTDYYMNWVRQAPGQGLEWMGRIYPGSGNTYYAQKFQGRVTMTRDTSTSTVYMELSSLRSEDTAVYYCARGVYYYDYWGQGTLVTVSS
VL: DIQMTQSPSSLSASVGDRVTITCRASQGIRTNLAWFQQKPGKAPKSLIYAASSLQSGVPSRFSGSGSGTDFTLTISSLQPEDFATYYCQQYNSYPRTFGGGTKVEIK
Cyno C-KIT CHO FabZAP IC50 (pM) [10]: 14 pM

B3: E-C7 (antibody, human IgG1, V domains shown)
VH: B2 VH
VL: B2 VL with A50S
notes: human IgG1; also called C-KIT-E-C7
OD450 nm [7]: > 2 OD450 nm
IC50 [8]: 0.051 µg/mL

B4: MH5.22 (antibody, human IgG1, V domains shown)
VH: B2 VH with Y32F, G54A, Y101W
VL: B2 VL with N92A, S93N
notes: graft frameworks; substitutions derived; human IgG1; also called C-KIT-MH5.22
OD450 nm [7]: > 2 OD450 nm
IC50 [9]: 0.164 µg/mL

B5: MH5-DI IgG1-3M (antibody, V domains shown)
VH: B2 VH
VL: B2 VL with N92A, S93N
Cyno C-KIT CHO FabZAP IC50 (pM) [10]: 13.5 pM

B6: MH5.1 (antibody, human IgG1, V domains shown)
VH: B2 VH with D31N, S55T, Y101W
VL: B2 VL with N92A, S93N
notes: graft frameworks; substitutions derived; human IgG1; also called C-KIT-MH5.1
IC50 [9]: 0.633 µg/mL

B10: F-F2 (antibody, human IgG1, V domains shown)
VH: B2 VH with Y103Q
VL: B2 VL with I29V, L33V, L54R
notes: graft frameworks; substitutions derived; human IgG1; also called C-KIT-F-F2
IC50 [8]: 0.121 µg/mL

B11: D-A10 (antibody, human IgG1, V domains shown)
VH: B2 VH with Y103F, Y105T
VL: B2 VL with I29V, L54R
notes: graft frameworks; substitutions derived; human IgG1; also called C-KIT-D-A10
IC50 [8]: 0.059 µg/mL

B12: E-E10 (antibody, human IgG1, V domains shown)
VH: B2 VH with Y101W, Y103F
VL: B2 VL with I29V, L33V, A50S
notes: graft frameworks; substitutions derived; human IgG1; also called C-KIT-E-E10
IC50 [8]: 0.097 µg/mL

B13: C-A7 (antibody, human IgG1, V domains shown)
VH: B2 VH with M48I, Y103F, Y105S
VL: B2 VL with I29V, T31N, L33V, A50Y
notes: graft frameworks; substitutions derived; human IgG1; also called C-KIT-C-A7
IC50 [8]: 0.081 µg/mL

B14: E-C2 (antibody, human IgG1, V domains shown)
VH: B2 VH with Y103L
VL: B2 VL with L33V, F36L, A50S, S53Y, L54R
notes: human IgG1; also called C-KIT-E-C2
OD450 nm [7]: > 2 OD450 nm

B16: F-C5 (antibody, human IgG1, V domains shown)
VH: B2 VH with Y103F, Y105E
VL: B2 VL with I29V, L54R
notes: human IgG1; also called C-KIT-F-C5
IC50 [8]: 0.079 µg/mL

B17: MH5 IgG1 (antibody, V domains shown)
VH: B2 VH
VL: B2 VL with A50S, N92A, S93N
notes: human IgG1; also called C-KIT-MH5
OD450 nm [7]: > 2 OD450 nm
IC50 [8]: 0.036 µg/mL
IC50 [9]: 0.058 µg/mL

B19: C-B12 (antibody, human IgG1, V domains shown)
VH: B2 VH with Y102E, Y103F
VL: B2 VL with I29V, T31N, S53Y, L54R
notes: graft frameworks; substitutions derived; human IgG1; also called C-KIT-C-B12
IC50 [8]: 0.166 µg/mL

B20: MH1 IgG1 (antibody, V domains shown)
VH: B2 VH
VL: B2 VL
notes: human IgG1; also called IgG1-MH1; C-KIT-MH1
OD450 nm [7]: > 2 OD450 nm

Next, values leading:

Kd (human FcγRI, His6-tagged): 1.06 nM
Kd [1]: 512 nM
Kd [2]: 1440 nM
Kd [3]: 82 nM
Kd [4]: 41.1 nM
Kd [5]: 249 nM
Kd [6]: 447 nM
Kd (human FcRn): 1240 nM
OD450 nm [7]: > 2 OD450 nm
IC50 [8]: 0.035 µg/mL
IC50 [9]: 0.036 µg/mL
B1: h37M IgG1 (antibody)
heavy: not shown
VL: DIVMTQSPSSLSASVGDRVTITCKASQNVRTNVAWYQQKPGKAPKALIYSASYRYSGVPDRFTGSGSGTDFTLTISSLQPEDFADYFCQQYNSYPRTFGGGTKVEIK
notes: Humanized 37M, human IgG1; Terbium-labelled as tracer in HTRF; also called C-KIT-h37M; IgG1-h37M; copies: 2 + 2

IC50 [8]: 0.101 µg/mL
B7: MH11 (antibody, human IgG1, V domains shown)
VH: B2 VH
VL: B2 VL with S93A
notes: graft frameworks; substitutions derived; human IgG1; also called C-KIT-MH11

IC50 [9]: 0.785 µg/mL
B8: MH5.35 (antibody, human IgG1, V domains shown)
VH: B2 VH with D31N, G54A, Y101W, Y103F, Y105T
VL: B2 VL with N92A, S93N
notes: graft frameworks; substitutions derived; human IgG1; also called C-KIT-MH5.35

IC50 [9]: 2.74 µg/mL
B9: MH5.24 (antibody, human IgG1, V domains shown)
VH: B2 VH with Y32F, G54A, Y101W, Y103F, Y105T
VL: B2 VL with N92A, S93N
notes: graft frameworks; substitutions derived; human IgG1; also called C-KIT-MH5.24

IC50 [9]: 0.532 µg/mL
B15: MH5.34 (antibody, human IgG1, V domains shown)
VH: B2 VH with D31N, G54A, Y101W, Y103F, Y105S
VL: B2 VL with N92A, S93N
notes: graft frameworks; substitutions derived; human IgG1; also called C-KIT-MH5.34

IC50 [9]: 3.26 µg/mL
B18: MH5.23 (antibody, human IgG1, V domains shown)
VH: B2 VH with Y32F, G54A, Y101W, Y103F, Y105S
VL: B2 VL with N92A, S93N
notes: graft frameworks; substitutions derived; human IgG1; also called C-KIT-MH5.23

IC50 [9]: 0.254 µg/mL
B21: MH5.2 (antibody, human IgG1, V domains shown)
VH: B2 VH with Y32F, S55T, Y101W
VL: B2 VL with N92A, S93N
notes: graft frameworks; substitutions derived; human IgG1; also called C-KIT-MH5.2
